Article PMC4770092, “Subnanometre enzyme mechanics probed by single-molecule force spectroscopy” (Nature Communications, 2016)

Key:
Experiment in all cases: coupled spectrophotometric assay
Format in all cases: biochemical, Aquifex aeolicus
[1] = substrate: Nc1ncnc2c1ncn2[C@@H]1O[C@H](COP(=O)(O)OP(=O)(O)OP(=O)(O)O)[C@@H](O)[C@H]1O
[2] = substrate: Nc1ncnc2c1ncn2[C@@H]1O[C@H](COP(=O)(O)O)[C@@H](O)[C@H]1O
[3] = substrate: Nc1ncnc2c1ncn2[C@@H]1O[C@H](COP(=O)(O)OP(=O)(O)O)[C@@H](O)[C@H]1O; conditions: Mg-ADP/ADP

B1: AdK 42-144 (Aquifex aeolicus VF5; INS144C/INS42C) (protein)
chain: MILVFLGPPGAGKGTQAKRLAKEKGFVHISTGDILREAVQKGCTPLGKKAKEYMERGELVPDDLIIALIEEVFPKHGNVIFDGFPRTVKQAEALDEMLEKKGLKVDHVLLFEVPDEVVIERLSGRRINPETGEVYHVKYNPPPPGCVKVIQREDDKPEVIKKRLEVYREQTAPLIEYYKKKGILRIIDASKPVEEVYRQVLEVIGDGN
notes: full length, Cys inserted between 42/43 and 144/145; N-terminal spacer …, C-terminal spacer and His6 kept; synthetic gene in pET11a, E. coli BL21(DE3); DNA handles on Cys in trap assay
[1]
  Km: 41 ± 11 µM
[2]
  Km: 10 µM
[3]
  Km: 360 ± 80 µM
